These results are taken from paper PMC4695161, “Multifaceted interactions and regulation between antizyme and its interacting proteins cyclin D1, ornithine decarboxylase and antizyme inhibitor” (Oncotarget, 2015).

The chains are these.
B1: human antizyme (AZ), wild type (natural protein)
chain: not shown
notes: antizyme (AZ), human; Natural AZ needs a +1 frameshift for translation; also called AZWT; full-length AZ; source: E. coli JM109 (pQE30), purified (Ni-NTA)
B2: human ornithine decarboxylase (ODC) (enzyme, UniProt P11926 1-461, looked up)
chain: MNNFGNEEFDCHFLDEGFTAKDILDQKINEVSSSDDKDAFYVADLGDILKKHLRWLKALPRVTPFYAVKCNDSKAIVKTLAATGTGFDCASKTEIQLVQSLGVPPERIIYANPCKQVSQIKYAANNGVQMMTFDSEVELMKVARAHPKAKLVLRIATDDSKAVCRLSVKFGATLRTSRLLLERAKELNIDVVGVSFHVGSGCTDPETFVQAISDARCVFDMGAEVGFSMYLLDIGGGFPGSEDVKLKFEEITGVINPALDKYFPSDSGVRIIAEPGRYYVASAFTLAVNIIAKKIVLKEQTGSDDEDESSEQTFMYYVNDGVYGSFNCILYDHAHVKPLLQKRPKPDEKYYSSSIWGPTCDGLDRIVERCDLPEMHVGDWMLFENMGAYTVAAASTFNGFQRPTIYYVMSGPAWQLMQQFQNPDFPPEVEEQDASTLPVSCAWESGMKRHRAACASASINV
notes: ornithine decarboxylase (ODC), human; source: purified recombinant; expression not described
B3: N-terminal AZ peptide AZ(34-124) (domain or fragment)
chain: not shown
notes: also called AZ N-terminal peptide; source: truncated by deletion mutagenesis of the human AZ plasmid
B4: N-terminal CCND1 peptide CCND1(21-154) (domain or fragment, human, UniProt P24385 21-154, looked up)
chain: NLLNDRVLRAMLKAEETCAPSVSYFKCVQKEVLPSMRKIVATWMLEVCEEQKCEEEVFPLAMNYLDRFLSLEPVKKSRLQLLGATCMFVASKMKETIPLTAEKLCIYTDNSIRPEELLQMELLLVNKLKWNLAA
notes: source: truncated by deletion mutagenesis of the human CCND1 plasmid

Holding throughout (conditions): both partners purified
One assay concerns the target T1, human cyclin D1 (CCND1) (human, UniProt P24385 1-295).
T1 construct: cyclin D1 (CCND1), human; source: E. coli JM109 (pQE30), purified (Ni-NTA)
Description: AUC; sedimentation velocity; AZ or AZ peptide at a fixed concentration, three concentrations of CCND1; 30 mM Tris-HCl pH 7.4, 50 mM NaCl; global fit (SEDPHAT) to A+B↔AB hetero-association.

Assay [1] concerns the target T2, pre-formed AZ-CCND1 complex (human, UniProt P54368 1-228; P24385 1-295).
T2 construct: antizyme (AZ), human, as m1; cyclin D1 (CCND1), human, as m2; Molar ratio AZ/CCND1 fixed at 1; also called CCND1-AZ complex; source: AZ pre-incubated with CCND1 for 1 hour (purified recombinant proteins)
Description: AUC; sedimentation velocity; AZ pre-incubated 1 hour with ODC (or CCND1) at molar ratio 1, then the third protein (CCND1 or ODC) at varied concentration; 30 mM Tris-HCl pH 7.4, 50 mM NaCl, 20°C.

Assay [2] deals with B1. Put plainly: AUC; sedimentation velocity, size distribution of mixtures at molar ratio AZ/CCND1 of 1; 30 mM Tris-HCl pH 7.4, 50 mM NaCl, 20°C; no constant fitted.

T1 sequence (P24385 whole entry): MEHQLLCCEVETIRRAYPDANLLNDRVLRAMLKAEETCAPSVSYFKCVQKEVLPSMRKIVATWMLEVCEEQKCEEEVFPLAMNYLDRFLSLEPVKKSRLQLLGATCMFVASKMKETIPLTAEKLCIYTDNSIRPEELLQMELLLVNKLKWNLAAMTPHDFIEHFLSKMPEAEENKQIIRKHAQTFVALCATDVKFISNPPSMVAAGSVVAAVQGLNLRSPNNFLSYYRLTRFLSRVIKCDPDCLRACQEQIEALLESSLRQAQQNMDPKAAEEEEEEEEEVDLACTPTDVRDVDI
T2 sequence (P54368 whole entry, chain 1 of 2): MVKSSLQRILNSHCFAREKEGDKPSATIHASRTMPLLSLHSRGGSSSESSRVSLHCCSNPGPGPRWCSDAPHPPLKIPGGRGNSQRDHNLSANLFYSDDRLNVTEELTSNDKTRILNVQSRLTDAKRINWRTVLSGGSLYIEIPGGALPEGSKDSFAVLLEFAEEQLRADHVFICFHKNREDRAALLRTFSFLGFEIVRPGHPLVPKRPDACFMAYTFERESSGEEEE
T2 sequence (P24385 whole entry, chain 2 of 2): as the sequence (P24385 whole entry) above

For orientation: Kd means the free concentration of one partner at which half of the binding sites on the other are occupied at equilibrium, for simple one-to-one binding. Regarding B1, the dissociation constant (Kd) in the assay with human cyclin D1 (CCND1) is 810 ± 20 nM. Consider B2, for which the Kd in assay [1] was 1260 ± 20 nM. For the molecule B3, binding in the assay with human cyclin D1 (CCND1) was characterised by a dissociation constant (Kd) of 870 ± 10 nM. B4: in assay [2], the binding result was “binds”.
